Measurements as given in article PMC2966416.

Key:
[1] = biological target: NCenH3^Cse4-lacI (Saccharomyces cerevisiae)
[2] = biological target: NCenH3^CenpA-lacI (human)

silencing of the white-reporter (eye pigmentation) in S9.2 flies on tethering of the lacI fusion: share of lines with strong silencing [1]: 75 % of lines
silencing of the white-reporter (eye pigmentation) in S9.2 flies on tethering of the lacI fusion: share of lines with significant silencing [2]: 50 % of lines
Substance: BubR1 (natural protein)
